From patent US6677433B2 (The Regents of the University of California, priority 2001, dated 2004) come the findings set out here.

For this test, the target named is T1, trypsin (Bos taurus, UniProt P00760).
T1 construct: purchased Sigma Chemical Co. (St. Louis, Mo.) T8640
T1 sequence (P00760 24-246): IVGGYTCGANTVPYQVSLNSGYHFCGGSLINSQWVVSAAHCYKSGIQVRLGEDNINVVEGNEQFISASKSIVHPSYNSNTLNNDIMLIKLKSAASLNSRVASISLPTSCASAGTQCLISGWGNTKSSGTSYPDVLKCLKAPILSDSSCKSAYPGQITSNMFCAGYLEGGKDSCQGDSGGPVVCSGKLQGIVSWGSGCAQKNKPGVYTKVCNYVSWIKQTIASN
The test can be described thus: Trypsin inhibition assay after reduction of the inhibitors. It counts as biochemical. How it is done: Unless indicated, the reduction of the trypsin inhibitors (0.4 mg/ml) was carried out in 0.1 ml of 20 mM sodium phosphate buffer, pH 7.9 containing 10 mM EDTA at 30° C. for 2 hours. The concentrations of thioredoxin, NTR, and NADPH were 0.024 mg/ml, 0.02 mg/ml, and 0.25 mM, respectively. […] Following reduction, aliquots of the inhibitor mixture were withdrawn either for determination of trypsin inhibitory activity or proteolytic susceptibility. In the subtilisin tests, the inhibitor mixture (50 μl) was directly mixed with subtilisin and incubated at room temperature for 1 hour. With the wheat protease preparation, the pH of the inhibitor mixture (50 μL) was first adjusted to 4.7 by mixing with 35 μl of 200 mM sodium acetate, pH 4.6; 10 μl of the wheat protease preparation was then added and incubation was continued for 2 hours at 37° C. To stop digestion with subtilisin, 2 μl of 100 mM phenylmethylsulfonyl fluoride (PMSF) and 10 μl of 10% SDS were added to the digestion mixture. With the plant protease preparation, digestion was stopped by adding an equal volume of SDS sample buffer [0.125 M Tris-HCl, pH 6.8, 4% (w/v) SDS, 20% (v/v) glycerol, 10% (v/v) β-mercaptoethanol, and 0.02% (w/v) bromophenol blue]. Proteolytic products were analyzed by electrophoresis with 12% or 16% SDS polyacrylamide slab gels (Laemmli, 1970). The dried slab gels were scanned with a laser densitometer (Pharmacia-LKB UltraScan XL) and the peak area of the KTI or BBTI protein band was obtained by integration with a Pharmacia GelScan XL software program.
Thioredoxin and NTR were assayed as previously described by Florencio et al. (1988). Trypsin activity was measured in 50 mM Tris-HCl, pH 7.9, by following the increase in absorbance at 253 nm with N-benzoyl-L-arginine ethyl ester as substrate (Mundy et al., 1984) or by the release of azo dye into the trichloroacetic acid (TCA)-soluble fraction from azocasein substrate (see below). For trypsin inhibition assays, trypsin (5 to 10 μg) was preincubated with appropriate amounts of KTI or BBTI for 5 minutes at room temperature in 50 mM Tris-HCl, pH 7.9 and proteolytic activity was then determined. While the two substrates yielded similar data, results are presented with only one substrate.
To determine the consequence of reduction by thioredoxin, the trypsin inhibitory activity of the oxidized and reduced forms of KTI and BBTI was compared. […] Similar results were obtained with DTT, a nonphysiological substitute for thioredoxin, and with thioredoxin reduced by lipoic acid, a naturally occurring dithiol.

B1: Soybean Kunitz: Kunitz soybean trypsin inhibitor (protein, UniProt P01070 25-205, looked up)
Trypsin inhibitor A: DFVLDNEGNPLENGGTYYILSDITAFGGIRAAPTGNERCPLTVVQSRNELDKGIGTIISSPYRIRFIAEGHPLSLKFDSFAVIMLCVGIPTEWSVVEDLPEGPAVKIGENKDAMDGWFRLERVSDDEFNNYKLVFCPQQAEDDKCGDIGISIDHDDGTRRLVVSKNKPLVVQFQKLDKESL
As to B1, the “increase in trypsin activity effected by the NADP/thioredoxin system” value turned out to be 3 fold. Moreover, for the setting “DTT 1 mM, 30° C., 1 hour, no inhibitor = 100”, the “Relative Trypsin Activity, inhibitor Reduced by DTT” value was found to be 68.6. Besides, the “Relative Trypsin Activity, inhibitor Reduced by NTS” value (E. coli NTS, 30° C., 2 hours, no inhibitor = 100) is 55.6. Moreover, where the note is “lipoic acid 0.4 mM and wheat thioredoxin h, 30° C., 1 hour”, the “Relative Trypsin Activity, inhibitor Reduced by LA/Trx h” value is given as 40.5. Further, the “Relative Trypsin Activity, inhibitor Oxidized” value (no inhibitor = 100, N-benzoyl-L-arginine ethyl ester) was 17.0.
